Data published in publication PMC11122373, “Structure-Based De Novo Design for the Discovery of Miniprotein Inhibitors Targeting Oncogenic Mutant BRAF” (International Journal of Molecular Sciences, 2024).

Target: T1, V600E mutant BRAF^15mut (BRAF kinase domain with 15 solubilizing mutations and V600E) (UniProt P15056 444-723, I543A | I544S | I551K | Q562R | L588N | K630S | Y673S | A688R | L706S | Q709R | …)
T1 construct: BRAF kinase domain, residues 444-723 of UniProt P15056, with 15 solubilizing mutations (Phe667 kept intact) and V600E; Cloned into pET-32a (NdeI, XhoI) with N-terminal MBP; also called VRAF murine sarcoma viral oncogene homologue B1 kinase domain; source: E. coli BL21(DE3), purified (MBPTrap HP column)
Assay: ELISA; 10 ug/mL V600E mutant BRAF^15mut coated in a 96-well plate; blocked with 5% skim milk in 20 mM Tris-HCl pH 7.5, 150 mM NaCl; purified Myc-tagged proteins (MEK1, MBP, miniproteins) added at 0, 200 and 2000 nM; detected with anti-c-Myc antibody and HRP-conjugated anti-mouse IgG, TMB, absorbance at 450 nm; triplicate
Settings: both partners purified

T1 sequence (P15056 other isoform, or with tags, fused parts or gaps with the stated changes): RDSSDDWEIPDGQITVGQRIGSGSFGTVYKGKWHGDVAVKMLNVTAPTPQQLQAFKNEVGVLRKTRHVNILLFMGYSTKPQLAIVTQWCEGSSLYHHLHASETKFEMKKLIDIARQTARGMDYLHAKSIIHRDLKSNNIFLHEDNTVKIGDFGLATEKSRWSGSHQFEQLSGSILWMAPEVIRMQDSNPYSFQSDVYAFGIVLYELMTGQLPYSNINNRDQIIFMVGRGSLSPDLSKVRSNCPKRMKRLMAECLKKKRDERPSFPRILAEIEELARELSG

Row | Binder | binding result
1 | miniprotein 94 (designed binder, de novo designed miniprotein of three helices and 69 amino acids; scaffold from residues 164-232 of 14-3-3, all 69 residues allowed to mutate; Cloned into pMAL-c5x with C-terminal Myc tag; source: E. coli BL21(DE3), purified (MBPTrap HP column); not shown: MBP, N-terminal, kept; Myc, C-terminal, kept) PCVWTGFREFKGGQRGKERLAMCEDLMCEADWWGGNQNRDRGSIFTRVKGSGALGKISIAERGARNNAV | binds
2 | miniprotein 63 (designed binder, de novo designed miniprotein of three helices and 69 amino acids; scaffold from residues 164-232 of 14-3-3, all 69 residues allowed to mutate; Cloned into pMAL-c5x (NdeI, EcoRI) with C-terminal Myc tag; source: E. coli BL21(DE3), purified (MBPTrap HP column); not shown: MBP, N-terminal, kept; Myc, C-terminal, kept) SIVGQGAQQMLVSKIKCTVANEWLDRSMLTSKFAMFVLLNEIDMLDIMLEAMGISLLEDREHQTRRVNY | binds
3 | miniprotein 76 (designed binder, de novo designed miniprotein of three helices and 69 amino acids; scaffold from residues 164-232 of 14-3-3, all 69 residues allowed to mutate; Cloned into pMAL-c5x (NdeI, EcoRI) with C-terminal Myc tag; source: E. coli BL21(DE3), purified (MBPTrap HP column); not shown: MBP, N-terminal, kept; Myc, C-terminal, kept) SIQGQGARQCLVSKLKCTVANEWLDRWMLTSKFAMFVLLNEIDMLDIMLEAMGISIEEDREHQTRRVNY | binds
